For experiment [1], the target named is T1, recombinant soluble rabbit TL1A (rabbit).
T1 construct: also called rabbit rsTL1A
T1 chain: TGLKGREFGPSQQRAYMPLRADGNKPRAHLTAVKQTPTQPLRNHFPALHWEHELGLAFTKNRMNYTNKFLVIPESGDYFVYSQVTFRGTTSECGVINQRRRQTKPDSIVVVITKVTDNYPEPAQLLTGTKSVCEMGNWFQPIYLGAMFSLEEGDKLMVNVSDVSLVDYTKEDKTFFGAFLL
Kind of experiment: SPR, IgG captured on anti-hIgG, TL1A injected. On the technique in general: SPR reads the build-up and loss of mass on a sensor chip optically.
From the text: (§1) The antibodies were captured via directly immobilized anti-human IgG (GE Healthcare) onto a carboxymethylated dextran sensor chip surface (CM5) using a Biacore T100 or T200 instrument. Anti-human IgG was immobilized through amine coupling to densities of approximately 4,000-13,000 response units (RU). […] At the end of each cycle, the entire anti-hIgG surface was regenerated by a 30-second pulse of 3M MgCl₂ followed by two consecutive 15-second pulses of PBS-NET. […] All injections were performed at 25° C. at a collection rate of 10 Hz. All sensorgrams were double referenced by using both a control surface and buffer injections. Rate constants were determined by fitting the data to a 1:1 model in Biacore T100, T200 evaluation software v1.0, or BIAevaluation software v4.1.1 and the equation KD=Kd/kₐ.
(§2) At the highest cytokine concentrations, the dissociation phase was sometimes extended to 60 minutes to achieve at least a 5% decrease in binding signal.

Experiment [2] addresses T2, recombinant soluble cynomolgus monkey TL1A (cynomolgus monkey, UniProt O95150 72-251 (human entry)).
T2 construct: also called cyno rsTL1A; cyno TL1A
T2 chain: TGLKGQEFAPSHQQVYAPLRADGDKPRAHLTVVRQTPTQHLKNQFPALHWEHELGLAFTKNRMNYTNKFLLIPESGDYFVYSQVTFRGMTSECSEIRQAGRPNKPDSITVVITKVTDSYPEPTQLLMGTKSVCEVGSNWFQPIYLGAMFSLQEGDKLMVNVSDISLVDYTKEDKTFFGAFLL
Kind of experiment: KinExA, equilibrium in solution. A general note: A kinetic exclusion assay measures how much of one partner remains free in solution.
Method: (§3) This assay involves pre-incubating antibody: antigen mixtures in solution long enough to reach equilibrium before measuring the level of unbound antibody using a solid phase component. […] Beads were blocked for 1 hour with PBS plus 10 mg/ml bovine serum albumin (bovine serum albumin, Sigma) at room temperature before being diluted up to a total of 27 ml in PBS. […] For each titration series, a buffer sample and a sample of antibody alone were included. Each antibody: TL1A mixture was tumbled at room temperature for at least six hours to reach equilibrium and then each mixture was injected over the solid phase of TL1A-coated beads in the instrument flow cell. […] Beads were replenished between each sample. Binding signals of detected free antibody were converted to percentage of free, unbound antibody as measured by the antibody only sample and plotted versus each concentration of TL1A. For each antibody, the KD and ABC controlled curves were fit simultaneously using n-Curve Analysis software v3.1.4 to fit the curves to the ‘affinity, unknown ligand’ model and measure an equilibrium KD.
(§4) Solution-based kinetic exclusion assays (KinExA) were carried out as an orthogonal technique to measure equilibrium KD values.

Experiment [3] deals with T3, recombinant soluble murine TL1A (mouse, UniProt Q5UBV8 75-252).
T3 construct: also called murine rsTL1A; mouse TL1A
T3 chain: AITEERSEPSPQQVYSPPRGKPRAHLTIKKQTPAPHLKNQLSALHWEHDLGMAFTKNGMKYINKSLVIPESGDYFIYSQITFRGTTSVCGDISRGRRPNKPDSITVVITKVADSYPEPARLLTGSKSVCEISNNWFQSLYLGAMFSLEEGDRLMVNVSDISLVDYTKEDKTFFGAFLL
As to the kind of experiment: KinExA, equilibrium in solution.
Method: as §3, §4

Experiment [4] has as its target T2, recombinant soluble cynomolgus monkey …. As to the kind of experiment: SPR, IgG captured on anti-hIgG, TL1A injected.
For experiment [5], the target named is T3, recombinant soluble murine TL1A. Kind of experiment: SPR, IgG captured on anti-hIgG, TL1A injected.
In experiment [6] the target is T2, recombinant soluble cynomolgus monkey …. Kind of experiment: SPR, IgG captured on anti-hIgG, TL1A injected.
From the text: To characterize the binding kinetics of the anti-TL1A antibodies to TL1A by surface plasmon resonance, each anti-TL1A antibody was captured via directly immobilized anti-human IgG (GE Healthcare) onto a carboxymethylated dextran sensor chip surface (CM5) using a Biacore T100 or T200 instrument. Anti-human IgG was immobilized through amine coupling to densities of approximately 4,000-13,000 response units (RU). […] At the end of each cycle, the entire anti-human IgG (hIgG) surface was regenerated by a 30-second pulse of 3M MgCl₂ followed by two consecutive 15-second pulses of PBS-NET. All injections were performed at 25° C. at a collection rate of 10 Hz. All sensorgrams were double referenced by using both a control surface and buffer injections. Rate constants were determined by fitting the data to a 1:1 model in Biacore T100, T200 evaluation software v1.0, or BIAevaluation software v4.1.1 and the equation KD=kd/kₐ.
The anti-TL1A antibodies were captured onto immobilized anti-human Fc on a CM5 sensor chip on a Biacore T100 instrument. […] Rate constants shown in the table were determined by fitting to a 1:1 Langmuir binding model in BiaEvaluation v4.1.1 (fit lines shown in red). Data shown are the average and standard deviation of at least 3 independent surfaces between 2 experiments.
In experiment [7] the target is T4, recombinant soluble rat TL1A (rat, UniProt Q8K3Y7 76-252).
T4 construct: also called rat rsTL1A
T4 sequence: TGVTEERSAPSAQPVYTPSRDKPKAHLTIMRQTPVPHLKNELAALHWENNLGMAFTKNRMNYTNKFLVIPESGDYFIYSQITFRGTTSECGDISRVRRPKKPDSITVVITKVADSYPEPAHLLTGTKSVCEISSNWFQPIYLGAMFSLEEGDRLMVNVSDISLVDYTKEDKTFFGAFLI
As to the kind of experiment: SPR, IgG captured on anti-hIgG, TL1A injected.
From the text: as §1, §2

The target in experiment [8] is T5, endogenous TL1A of stimulated human peripheral blood (human, UniProt O95150 72-251, limits assumed).
T5 sequence (looked up): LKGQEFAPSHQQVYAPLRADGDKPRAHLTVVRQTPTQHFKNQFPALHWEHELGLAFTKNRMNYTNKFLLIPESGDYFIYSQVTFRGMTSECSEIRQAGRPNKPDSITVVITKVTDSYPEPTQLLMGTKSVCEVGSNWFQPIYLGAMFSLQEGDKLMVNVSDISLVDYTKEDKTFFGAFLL
As to the kind of experiment: cell-based or functional assay.

The target of experiment [9] is T2, recombinant soluble cynomolgus monkey …. As to the kind of experiment: SPR, IgG captured on anti-hIgG, TL1A injected.
From the text: as §1, §2
Experiment [10] deals with T3, recombinant soluble murine TL1A. Kind of experiment: SPR, IgG captured on anti-hIgG, TL1A injected.
From the text: as §1, §2
In experiment [11] the target is T6, recombinant soluble human TL1A (human, UniProt O95150 71-251).
T6 construct: Homotrimer, expressed in HEK293 and purified over HitrapNTA; no tag is described; Used biotinylated in the HTRF assay and in flow cytometry; also called rsTL1A; hTL1A
T6 sequence: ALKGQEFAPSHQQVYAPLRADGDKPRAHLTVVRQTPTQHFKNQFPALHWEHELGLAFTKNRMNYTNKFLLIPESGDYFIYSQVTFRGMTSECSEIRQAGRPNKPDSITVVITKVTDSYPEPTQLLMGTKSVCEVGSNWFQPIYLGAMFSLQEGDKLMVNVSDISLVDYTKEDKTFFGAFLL
As to the kind of experiment: binding test of the 1D1 point mutants, method not named.

Where a chain is given by its changes, count along the chain named. Where two headings read alike, the source gives them in different places.

B1: anti-TL1A antibody 1D1 (antibody, human IgG1, kappa, V domains shown)
VH: QVQLVQSGAEVKKPGASVKVSCKASGYSFTYYGISWVRQAPGQGLEWMGWISTYNGNTNYARMLQGRVTMTTDTSTRTAYMELRSLRSDDTAVYYCARENYYGSGSYRGGMDVWGQGTTVTVSS
VL: EIVLTQSPATLSLSPGERATLSCRASQSVSSYLAWYQQKPGQAPRLLIYDASNRATGIPARFSGSGSGTDFTLTISSLEPEDFAVYYCQQRSNWPWTFGQGTKVEIKR
notes: Human IgG1 with effector-null triple mutation (hIgG1-3m), kappa; The first binning was done with the antibodies from the hybridoma screen; also called 1D1 parental; Parental 1D1
In general, Kd refers to a measure of binding affinity in units of concentration. As usually defined, the koff is a measure of how fast the partners let go of each other. One may read the kon as the rate constant with which the complex forms. Regarding B1, the Kd in [1] came out at 1.31 nM; in experiment [2], 0.384 nM; in experiment [3], 0.383 nM; in experiment [4], 1.67 nM; in [5] it was 1.32 nM; in experiment [6] it was 7 nM. Also, the values for the Kd in experiment [7], in [9] and in experiment [10] were 8.14 nM, 6.69 nM and 7.29 nM, respectively. In addition, the koff in experiment [1] was determined as 0.00079 s⁻¹; in [6], 0.0041 s⁻¹; in experiment [7] it was 0.0134 s⁻¹; in [9], 0.0041 s⁻¹; in experiment [10], 0.0036 s⁻¹. Moreover, the kon in experiment [1] turned out to be 610000 M⁻¹ s⁻¹; in [6], 600000 M⁻¹ s⁻¹; in experiment [7], 1.71e+06 M⁻¹ s⁻¹; in experiment [9], 600000 M⁻¹ s⁻¹; in experiment [10] it was 490000 M⁻¹ s⁻¹. The t1/2 in experiment [1] turned out to be 14.6 min; in experiment [7] it was 0.867 min; in experiment [9], 2.82 min; in experiment [10], 3.25 min. Further, the “HWB Assay, average IC50” value in experiment [8] came out at 0.248 nM.

B2: 1D1 with heavy chain mutation Y31H (antibody, V domains shown)
VH: B1 VH with Y31H
VL: EIVLTQSPATLSLSPGERATLSCRASQSVSSYLAWYQQKPGQAPRLLIYDASNRATGIPARFSGSGSGTDFTLTISSLEPEDFAVYYCQQRSNWPWTFGQGTKVEIK
notes: Point mutant of 1D1 CDR-H1
As to B2, the dissociation constant Kd in experiment [11] amounted to 12.7 nM.

(Values after patent US20260210971A1 (Pfizer, published 2026).)
